In paper PMC2376138 (2002):

B1: SC142 monoclonal antibody (antibody, V domains shown)
VH: QVKLQQSGTEVVKPGASVKLSCKASGYIFTSYDIDWVRQTPEQGLEWIGWIFPGEGSTEYNEKFKGRATLSVDKSSSTAYMELTRLTSEDSAVYFCARGDYYRRYFDLWGQGTTVTVSS
VL: DIELTQSPTIMSASPGERVTMTCSASSSIRYIYWYQQKPGSSPRLLIYDTSNVAPGVPFRFSGSGSGTSYSLTINRMEAEDAATYYCLEWSGYPYTFGGGTKLELK
B2: recombinant SC142 scFv (scFv, V domains shown)
VH: B1 VH
VL: B1 VL

Assays:
SC142-reactive antigen [1] = target: T1, SC142-reactive antigen (human (endogenous in SNU16), highly glycosylated (O-glycans)); test: SPR; apparent; immobilised mAb, 1:1 Langmuir global fit
SC142-reactive antigen [2] = target: T1, SC142-reactive antigen; test: SPR; apparent; immobilised scFv, 1:1 Langmuir global fit

Row | Binder | koff (SC142-reactive antigen [1]) [s⁻¹] | koff (SC142-reactive antigen [2]) [s⁻¹]
1 | B1 | 0.000825 | 
2 | B2 |  | 0.000776
